Source: the supplement of paper PMC9732359
± gives the uncertainty stated by the source.

Test: protein stability index of a GFP-peptide fusion (yeast GPS) (PSI 1-4); higher = more stable; sorted into four equal gates, so the index is relative within each strain
Procedure, shortened: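 Plasmids in a pooled yeast library fused tiled 17-residue yeast protein peptides downstream of GFP and also expressed Cherry. Mid-log cultures grown without leucine were sorted into four equal gates by GFP/Cherry fluorescence ratio. Each gate's plasmids were PCR-amplified and Illumina-sequenced, and reads were matched to strains by barcodes. The protein stability index is derived by multiplying each gate's read frequency by its gate number and summing the results.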

Sequence | protein stability index (doa10∆) | protein stability index (pdr5∆) | protein stability index (san1∆) | protein stability index (ubr1∆)
EDNNDAVNSIMALKFVS [ECM29] | 3.15 ± 0.1 | 3.3 ± 0.077 | 3.03 ± 0.079 | 3.32 ± 0.07
EDNYNPKMQWSLQDNSA [RPN4] | 3.21 ± 0.11 | 3.3 ± 0.13 | 3.22 ± 0.087 | 3.07 ± 0.068
EDVLSSFYRVEKIKKIN [SSN2] | 1.7 ± 0.28 | 1.13 ± 0.074 | 1.24 ± 0.28 | 1.16 ± 0.089
EDYELSPQAVSSFVRQE [PRE1] | 2.29 ± 0.14 | 2.42 ± 0.15 | 2.31 ± 0.093 | 2.53 ± 0.083
EEAKSVLPAATKKKSKF [ARP9] | 2.1 ± 0.062 | 2.25 ± 0.043 | 2.04 ± 0.06 | 2.31 ± 0.036
EECGRTIHRSFTICLND [CSN12] | 2.93 ± 0.064 | 2.87 ± 0.065 | 2.84 ± 0.055 | 2.86 ± 0.044
EEEESILIAMQPEDLEP [RPB2] | – | – | 2.33 ± 0.13 | –
EEELFEVTKEEDIIANY [RRP43] | 3.17 ± 0.088 | 3.08 ± 0.073 | 3.19 ± 0.11 | 3.43 ± 0.077
EEELWNSPSKGNSERPS [YIL149C/MLP2] | 3.11 ± 0.1 | 3.38 ± 0.083 | 3.24 ± 0.061 | 3.27 ± 0.095
EEERRKKRESGVEEEEE [SNF2] | 3.49 ± 0.079 | 3.35 ± 0.1 | 3.38 ± 0.11 | 3.46 ± 0.047
EEIRSQIDHFKSMLSKP [SWI3] | 1.65 ± 0.045 | 2.32 ± 0.065 | 2.67 ± 0.053 | 2.35 ± 0.04
EEIVVVASADYESQTFS [PRP8] | 3.14 ± 0.069 | 3.5 ± 0.095 | 3.24 ± 0.054 | 3.3 ± 0.057
EEKEKEQSKEVGDVVGG [BRN1] | 3.29 ± 0.091 | 3.52 ± 0.1 | 3.29 ± 0.067 | 3.34 ± 0.075
EEKKKEHEEKEKERETN [RPN2] | 3.3 ± 0.23 | 3.37 ± 0.1 | 3.38 ± 0.15 | 3.44 ± 0.24
EEKSNEVKTPKIPLFTF [SIR4] | 2.82 ± 0.061 | 2.94 ± 0.065 | 2.57 ± 0.048 | 2.79 ± 0.047
EEKVIERAAQKLRLDQL [ISW2] | 2.81 ± 0.15 | 2.89 ± 0.14 | 2.87 ± 0.12 | 2.68 ± 0.11
EERMGQIENLNEVCLEK [SMC4] | 3.48 ± 0.28 | – | 2.47 ± 0.27 | –
EESLTVLNCLRTMYFIL [YJR042W/NUP85] | 2.54 ± 0.11 | 1.83 ± 0.081 | 1.38 ± 0.098 | 1.57 ± 0.068
EEVEDQINPTRETNDDI [SNF2] | 2.25 ± 0.079 | 1.74 ± 0.082 | 1.45 ± 0.11 | 1.58 ± 0.062
EEVQQAQTEIKLFNKWS [RPS5] | 3.17 ± 0.1 | 3.21 ± 0.096 | 3.25 ± 0.076 | 3.27 ± 0.075
EEYARRLAEFKRRKLDL [SMC4] | 3.13 ± 0.13 | 3.46 ± 0.12 | 2.72 ± 0.1 | 3.31 ± 0.08
EFEIPVSFNGFKLPKKF [BRR2] | 2.58 ± 0.1 | 2.94 ± 0.12 | 2.61 ± 0.12 | 2.91 ± 0.094

Sequence | protein stability index (doa10∆) | protein stability index (pdr5∆) | protein stability index (san1∆) | protein stability index (ubr1∆)
EFENKFQNSYKPALKVS [YMR129W/POM152] | – | 3.11 ± 0.22 | 3.04 ± 0.2 | –
EFETPTFLVSNDDEVSQ [RPN14] | 2.69 ± 0.092 | 2.89 ± 0.084 | 2.72 ± 0.079 | 2.77 ± 0.13
EFFVQVLTHESLHRQQQ [DLS1] | 2.99 ± 0.19 | 2.91 ± 0.14 | 2.81 ± 0.12 | 2.92 ± 0.13
EFKIEQNNEQNPIDPFN [YDL116W/NUP84] | 2.96 ± 0.087 | 3.11 ± 0.087 | 3.05 ± 0.067 | 3.23 ± 0.061
EFNFTNLQAKPLVGKPK [YAR002W/NUP60] | 2.1 ± 0.06 | 2.35 ± 0.055 | 2.27 ± 0.077 | 2.25 ± 0.042
EFNSIDRVIFRVPIRSE [PRP8] | 3.32 ± 0.089 | 3.33 ± 0.097 | 3.21 ± 0.13 | 3.11 ± 0.046
EFQPSGNVTELYGTAIG [PRE5] | 2.15 ± 0.069 | 2.8 ± 0.07 | 1.98 ± 0.067 | 1.57 ± 0.041
EFSEHTFVERLPNETIN [DIS3] | 3.34 ± 0.16 | 2.47 ± 0.18 | 3.36 ± 0.11 | 3.23 ± 0.12
EGHLAEIRAKEYKTSSD [SRB2] | 3.22 ± 0.11 | 3.29 ± 0.081 | 3.18 ± 0.051 | 3.26 ± 0.078
EGLIRLDNLTEDPNSAA [DIS3] | 3.23 ± 0.066 | 3.31 ± 0.061 | 3.229 ± 0.032 | 3.185 ± 0.031
EGQENNYNSTSRSTEKK [SIR4] | 3.3 ± 0.17 | 3.26 ± 0.13 | 2.65 ± 0.17 | 3.25 ± 0.11
EGYQNDINTIKLQLSFV [SRP72] | 3.12 ± 0.21 | 2.73 ± 0.088 | 2.1 ± 0.26 | 3.07 ± 0.14
EHAKWGPAAAIEFEYDP [RPB3] | 2.54 ± 0.078 | 3.01 ± 0.074 | 2.36 ± 0.07 | 3.09 ± 0.075
EHIKQDYVASLNELYQT [NSL1] | 2.91 ± 0.062 | 3.1 ± 0.057 | 2.84 ± 0.047 | 2.88 ± 0.053
EHKPVSPDKIGTFTADY [SSN2] | 2.98 ± 0.071 | 3.15 ± 0.051 | 2.9 ± 0.058 | 3.09 ± 0.048
EIEELKSSIQNLNELES [SMC3] | 1.66 ± 0.2 | 2.06 ± 0.17 | 2.07 ± 0.28 | 2.71 ± 0.21
EIEQVCKQVHDKLTSIQ [MED7] | 2.92 ± 0.067 | 3.23 ± 0.04 | 2.92 ± 0.06 | 2.89 ± 0.055
EIHPITFPPEVLARISP [RRP43] | 2.05 ± 0.041 | 2.57 ± 0.054 | 2.4 ± 0.049 | 1.94 ± 0.041
EIIPLQDYYIIGANIYQ [MED6] | 2.97 ± 0.064 | 3.07 ± 0.052 | 3.16 ± 0.04 | 3.1 ± 0.044
EIITSLSMRFQRETSGM [SRB8] | – | 2.28 ± 0.18 | – | 2.47 ± 0.17
EIKKVTQIVAKFPETSY [SIN4] | 2.25 ± 0.27 | 3.02 ± 0.11 | – | 2.57 ± 0.27
EILYYQIKTLPEQYSDI [AAR2] | 2.9 ± 0.081 | 3.14 ± 0.084 | 2.77 ± 0.067 | 2.91 ± 0.046
